From US20240254227A1 (Alector, published 2024) come the findings set out here.

Holding throughout (test): SPR (Carterra LSA), antibody immobilised, Fc fusion at 300 or 600 nM
One experiment deals with T1, human CD300C-Fc (human).
T1 construct: hIgG1-Fc fusion; the entry is the whole fusion chain
T1 chain: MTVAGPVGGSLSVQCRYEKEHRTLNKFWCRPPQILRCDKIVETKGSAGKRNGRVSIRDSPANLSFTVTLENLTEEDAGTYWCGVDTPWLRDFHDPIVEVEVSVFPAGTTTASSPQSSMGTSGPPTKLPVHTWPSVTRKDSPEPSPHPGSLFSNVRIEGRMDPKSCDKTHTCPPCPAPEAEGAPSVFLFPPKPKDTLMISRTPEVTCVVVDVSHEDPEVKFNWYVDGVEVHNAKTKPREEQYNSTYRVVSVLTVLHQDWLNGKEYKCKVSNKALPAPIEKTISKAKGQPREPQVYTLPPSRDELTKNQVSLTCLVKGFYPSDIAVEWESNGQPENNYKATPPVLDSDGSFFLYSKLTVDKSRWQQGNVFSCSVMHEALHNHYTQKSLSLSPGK
The protocol: (§1) Binding of mouse anti-CD300LB IgG1 antibodies of the present disclosure to human and murine CD300 orthologs were evaluated by surface plasmon resonance (SPR) using a Carterra LSA instrument (Carterra, Salt Lake City, UT). […] A HC200M sensor chip (Carterra) was activated using the single channel flow cell with a 7-minute injection of a 1:1:1 mixture of 100 mM MES pH 5.5, 100 mM sulfo-NHS, 400 mM EDC (all reconstituted in MES pH 5.5; 100 μL of each mixed in vial immediately before running assay). After switching to the multi-channel array flow cell, the antibodies were injected over the activated chip in a 96-spot array for 10 minutes. The remaining unconjugated active groups on the chip were then blocked by injecting 1M Ethanolamine pH 8.5 (Carterra) for 7 minutes using the single channel flow cell. After priming with running buffer (HBS-TE, Carterra) with 0.5 mg/ml BSA (Sigma), the immobilized anti-CD300LB antibodies were tested for their ability to bind human and mouse recombinant CD300LB extracellular domains. Human CD300 family members and mouse CD300A were hIgG1-Fc fusions, while mouse CD300LB, mouse CD300C, mouse CD300D, and mouse CD300E were mouse IgG2a-Fc fusions (R&D Systems). Binding was assessed by injecting each analyte over the entire antibody array using the single channel flow cell. CD300 analytes were diluted to 300 nM or 600 nM in running buffer and injected in series without regeneration. Two or three buffer blanks were run between each mouse or human ortholog, respectively. Data were processed and analyzed using NextGenKIT high-throughput kinetics analysis software (Carterra).
(§2) Results of anti-CD300LB antibody binding to human CD300 family members is provided below in Table 7.

The target in a further experiment is T2, human CD300D-Fc (human).
T2 construct: hIgG1-Fc fusion; the entry is the whole fusion chain
T2 chain: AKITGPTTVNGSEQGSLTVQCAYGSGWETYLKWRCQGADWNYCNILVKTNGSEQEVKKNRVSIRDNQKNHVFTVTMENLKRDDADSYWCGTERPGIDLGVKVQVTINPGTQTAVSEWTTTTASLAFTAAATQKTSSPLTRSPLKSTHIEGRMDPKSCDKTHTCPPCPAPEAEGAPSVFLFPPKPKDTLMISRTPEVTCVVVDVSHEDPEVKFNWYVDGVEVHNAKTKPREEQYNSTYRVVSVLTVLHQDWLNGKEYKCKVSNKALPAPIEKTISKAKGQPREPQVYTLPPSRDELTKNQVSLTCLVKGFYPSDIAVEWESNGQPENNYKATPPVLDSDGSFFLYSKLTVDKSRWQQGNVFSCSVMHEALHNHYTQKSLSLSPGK
The protocol: as §1, §2

The target of another experiment is T3, human CD300E-Fc (human).
T3 construct: hIgG1-Fc fusion; the entry is the whole fusion chain
T3 chain: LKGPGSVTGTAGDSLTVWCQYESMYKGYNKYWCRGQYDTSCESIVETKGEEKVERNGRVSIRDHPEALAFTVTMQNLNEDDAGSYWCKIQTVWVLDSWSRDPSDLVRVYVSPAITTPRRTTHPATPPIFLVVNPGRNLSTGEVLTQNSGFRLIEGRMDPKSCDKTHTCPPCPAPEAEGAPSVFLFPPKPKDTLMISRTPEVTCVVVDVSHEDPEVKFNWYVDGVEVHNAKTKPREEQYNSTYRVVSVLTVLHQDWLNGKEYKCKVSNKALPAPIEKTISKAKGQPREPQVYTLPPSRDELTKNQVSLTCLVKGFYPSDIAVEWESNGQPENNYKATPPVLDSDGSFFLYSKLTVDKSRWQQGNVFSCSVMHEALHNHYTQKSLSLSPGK
On the procedure:
as §1, §2

The target of another experiment is T4, human CD300F-Fc (human).
T4 construct: hIgG1-Fc fusion; the entry is the whole fusion chain
T4 chain: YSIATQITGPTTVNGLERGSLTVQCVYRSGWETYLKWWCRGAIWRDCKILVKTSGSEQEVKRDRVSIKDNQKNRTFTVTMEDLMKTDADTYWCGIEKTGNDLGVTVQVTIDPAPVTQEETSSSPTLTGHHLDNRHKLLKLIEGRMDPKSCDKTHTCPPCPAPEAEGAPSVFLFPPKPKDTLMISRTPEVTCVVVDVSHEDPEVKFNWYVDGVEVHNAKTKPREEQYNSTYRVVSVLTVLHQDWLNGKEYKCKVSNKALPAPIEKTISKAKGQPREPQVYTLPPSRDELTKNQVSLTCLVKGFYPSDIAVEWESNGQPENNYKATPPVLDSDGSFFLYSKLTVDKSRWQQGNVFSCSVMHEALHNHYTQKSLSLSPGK
On the procedure: as §1, §2

The target in another experiment is T5, human CD300A-Fc (human).
T5 construct: hIgG1-Fc fusion; the entry is the whole fusion chain
T5 chain: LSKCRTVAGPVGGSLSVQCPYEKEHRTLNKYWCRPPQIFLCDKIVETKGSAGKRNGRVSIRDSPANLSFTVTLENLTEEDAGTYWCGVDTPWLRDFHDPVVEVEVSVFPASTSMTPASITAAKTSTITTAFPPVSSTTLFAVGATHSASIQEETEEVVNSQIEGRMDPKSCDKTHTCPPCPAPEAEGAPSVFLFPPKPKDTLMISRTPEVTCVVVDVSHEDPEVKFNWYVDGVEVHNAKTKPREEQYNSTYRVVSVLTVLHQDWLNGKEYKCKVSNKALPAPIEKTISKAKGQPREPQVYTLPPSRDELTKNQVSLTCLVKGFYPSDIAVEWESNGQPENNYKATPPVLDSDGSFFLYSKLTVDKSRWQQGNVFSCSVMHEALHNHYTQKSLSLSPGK
On the procedure:
as §1, §2

B1: anti-CD300LB antibody CD-03 (antibody, V domains shown)
VH: EVQLQQSGPELVKPGASVKISCKASGYTFTDYYINWVRQSHGKSLECIGDINPNNGGTNYNQKFKGKATLTVDRSSNTAYMEFRSLTFDDSALYYCAAEGAYWGQGTLVTVSA
VL: not shown
As for B1, the “SPR binding (control subtracted)” value was found to be 0.165 in the experiment with human CD300C-Fc; 0.4 with human CD300D-Fc; 0.18 with human CD300E-Fc; 0.42 in the experiment with human CD300F-Fc; 0.095 with human CD300A-Fc.

B2: anti-CD300LB antibody CD-01 (antibody, V domains shown)
VH: RVQLQQSGAELVRPGASVTLSCKASGFTFTDFEMHWVKKTPVHGLEWIGAIDPESGNTAYNQKFRGKATLTADKSSSTAYMELRYLTSEDSAVYYCTPLISGADYWGQGTTLTVSS
VL: DVVMTQSPLSLPVSLGDQASISCRSSQSLVHSDGNTYLYWYLQKPGQSPKLLIYKVSNRFSGVPDRFSGSGSGTDFTFKISRVGAEDLGVYFCSQSTHVPWTFGGGTKLEII
Take B2: the “SPR binding (control subtracted)” value was 0.805 with human CD300C-Fc; 0.575 with human CD300D-Fc; -0.105 with human CD300E-Fc; 0.075 in the experiment with human CD300F-Fc; 0.175 with human CD300A-Fc.

B3: anti-CD300LB antibody CD-05 (antibody, V domains shown)
VH: QVQLVQSGAEVKKPGASVKVSCKASGYTFSRYYINWVRQAPGQGLEWMGWINPNSGGTNYAQKFQGRVTMTRDTSTSTVYMELSSLRSEDTAVYYCTTDQLRFGKTGPYYGMDVWGQGTTVTVSS
VL: DIQMTQSPSSLSASVGDRVTITCRASQNIGTYLNWYQQKPGKAPKLLIYAASSLQSGVPSRFSGSGSGTDFTLTISSLQPEDFATYYCQQSYSDTLTFGGGTKVEIK
Turning to B3, the “SPR binding (control subtracted)” value in the experiment with human CD300C-Fc came to 0.06; in the experiment with human CD300D-Fc, 0.115; with human CD300E-Fc, 0.195; with human CD300F-Fc, 0.045; with human CD300A-Fc, 0.24.

B4: anti-CD300LB antibody CD-02 (antibody, V domains shown)
VH: QVQLQQPGAELVRPGSSVKLSCQASGYTFTNYWMHWVRQRPIQGLEWIGNIDPSDSETHYNQKFKDRATLTVDKSSSTAYMQLSSLTSEDSAVYYCARSGVYDDEGGDYWGQGTTLTVSS
VL: ENVLTQSPAIMSASPGEKVTMTCSASSSVSYIHWYQQKSSTSPKLWIYDTSKLASGVPGRFSGSGSGNSYSLTISSMETEDVATYYCFQGSGYPLTFGAGTKLELK
For the molecule B4, the “SPR binding (control subtracted)” value with human CD300C-Fc amounted to 0.425; with human CD300D-Fc it was 0.76; in the experiment with human CD300E-Fc, 0.62; with human CD300F-Fc it was 0.87; in the experiment with human CD300A-Fc it was 0.735.
